Results reported in the supplement of paper PMC9732359.
± gives the uncertainty stated by the source.

Assay: protein stability index of a GFP-peptide fusion (yeast GPS) (PSI 1-4); higher = more stable; sorted into four equal gates, so the index is relative within each strain
In short: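 Mid-log yeast cultures in leucine-free medium, carrying a pooled plasmid library, were sorted into four equal gates by their GFP/Cherry fluorescence ratio. Each plasmid expressed Cherry along with GFP fused upstream of a tiled 17-residue yeast protein peptide. Plasmids recovered from each gate were PCR-amplified and Illumina-sequenced, with reads assigned to strains by barcodes. The protein stability index was obtained by summing each gate's read frequency weighted by its gate number.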

Sequence | protein stability index (doa10∆) | protein stability index (pdr5∆) | protein stability index (san1∆) | protein stability index (ubr1∆)
IASLERELILAKKQNYK [YCG1] | 2.6 ± 0.07 | 3.07 ± 0.06 | 2.14 ± 0.084 | 2.42 ± 0.041
GFKWLNKLDEYHGLYTN [LIN1] | 1.81 ± 0.056 | 1.79 ± 0.056 | 1.88 ± 0.056 | 1.67 ± 0.068
DATRVFVNGVWHGVHRN [RPB2] | 3.04 ± 0.093 | 3.35 ± 0.071 | 3.28 ± 0.048 | 3.27 ± 0.066
DIFITPTPVVTISEKEQ [SSN2] | 1.76 ± 0.079 | 1.95 ± 0.077 | 1.48 ± 0.12 | 1.67 ± 0.069
LVRELYQWRDLIARRDD [RRP6] | 2.96 ± 0.056 | 2.77 ± 0.062 | 2.65 ± 0.055 | 2.25 ± 0.043
HGIKDIPIGHVHVIHFQ [AAR2] | 2.89 ± 0.06 | 2.86 ± 0.058 | 2.87 ± 0.059 | 2.75 ± 0.041
SIMAVTFKDGVILGADS [PRE3] | 1.66 ± 0.1 | 2.61 ± 0.094 | 2.94 ± 0.086 | 2.59 ± 0.14
SSTDEESWFKALAGSEI [FAS1] | 3.32 ± 0.12 | 3.34 ± 0.14 | 3.11 ± 0.11 | 3.3 ± 0.081
TDEHLIFNSGKMIILDK [ISW2] | 3 ± 0.24 | 2.74 ± 0.074 | 2.35 ± 0.1 | 2.59 ± 0.058
HLDNSKSVFSSAGLDSA [RPN1] | 2.58 ± 0.064 | 2.69 ± 0.043 | 2.25 ± 0.063 | 2.15 ± 0.055
SKLLYDDVTCDKLSVSE [SIN4] | 3.08 ± 0.07 | 3.02 ± 0.053 | 2.86 ± 0.051 | 3.23 ± 0.043
NLRLKILTIIEEYKKSL [GRR1] | 1.65 ± 0.068 | 1.6 ± 0.055 | 1.86 ± 0.083 | 1.61 ± 0.07
TTSEKQEVTNEAPFLTS [GAL11] | 3.2 ± 0.093 | 3.35 ± 0.076 | 3.14 ± 0.11 | 3.36 ± 0.067
KSDDDDHTVDEIDHVEY [SRB8] | 2.45 ± 0.069 | 2.46 ± 0.08 | 2.98 ± 0.1 | 2.91 ± 0.048
TKDKAKKIREIYRYDEM [BRR2] | 2.58 ± 0.14 | 2.71 ± 0.1 | 2.46 ± 0.14 | 2.89 ± 0.059
GRKYTTLGKLSTSVGWK [RPL16B] | 2.79 ± 0.1 | 1.94 ± 0.1 | 2.77 ± 0.11 | 2.64 ± 0.067
VHNTVAAGNASSLPPGE [SNF5] | 2.82 ± 0.094 | 2.75 ± 0.071 | 2.94 ± 0.06 | 2.75 ± 0.077
VSPNAAPRQEISEEETT [YAR002W/NUP60] | 3.19 ± 0.1 | 2.88 ± 0.077 | 2.9 ± 0.086 | 2.6 ± 0.12
ASEREELALIEEAYDNP [PRP8] | 3 ± 0.12 | 3.23 ± 0.096 | 3.35 ± 0.065 | 3.5 ± 0.14
SAENRDEKDYLTNQQPK [CSE2] | 2.76 ± 0.063 | 2.79 ± 0.062 | 2.54 ± 0.048 | 2.77 ± 0.038
NPNPSSQRAQVVTMSVK [RPC37] | 2.3 ± 0.067 | 2.83 ± 0.071 | 2.1 ± 0.068 | 2.42 ± 0.075
MSTDVAAAQAQSKIDLT [SEM1] | 2.91 ± 0.079 | 2.82 ± 0.095 | 2.98 ± 0.079 | 2.88 ± 0.083
FNELCDPESRTQSYNNQ [POP1] | 3.09 ± 0.14 | 3.02 ± 0.12 | 2.95 ± 0.11 | 2.96 ± 0.084
EAEIECFDSTTGRDAGF [RRP40] | 3.15 ± 0.17 | 3.12 ± 0.17 | 3.28 ± 0.095 | 3.2 ± 0.12
VSQMVAVVGQQIISGNR [RPO31] | 3.2 ± 0.14 | 3.14 ± 0.15 | 3 ± 0.094 | 2.68 ± 0.13
TTAEPKAKRAKTGSAST [TAF14] | 3.2 ± 0.077 | 3.14 ± 0.093 | 3.34 ± 0.053 | 3.29 ± 0.053

Sequence | protein stability index (doa10∆) | protein stability index (pdr5∆) | protein stability index (san1∆) | protein stability index (ubr1∆)
QALRVLRLKPGRKYTTL [RPL16B] | 2.34 ± 0.055 | 1.98 ± 0.051 | 2.37 ± 0.057 | 2.73 ± 0.048
KERISVAAASKILSNLV [PRE2] | 2.75 ± 0.059 | 2.69 ± 0.041 | 2.78 ± 0.048 | 2.71 ± 0.034
EETDDEDKQNIEINEDN [RRI2] | 3.52 ± 0.08 | 3.25 ± 0.07 | 3.26 ± 0.045 | 3.25 ± 0.038
DWVENELEALKLEAEEI [FAS2] | 3.29 ± 0.27 |  |  | 3.49 ± 0.24
HPTIYESLPQYVDFVPM [POP4] | 1.72 ± 0.045 | 2 ± 0.048 | 1.81 ± 0.056 | 1.78 ± 0.051
NVVGKLISIISSVIQNY [YML103C/NUP188] | 1.79 ± 0.073 | 1.44 ± 0.078 | 1.36 ± 0.13 | 1.51 ± 0.089
DDYILSGESVMDRDSES [SRB4] | 3.45 ± 0.19 | 3.6 ± 0.12 | 3.34 ± 0.15 | 3.21 ± 0.13
VRSTIKFQLKKVLCLAV [RPL1A] | 1.45 ± 0.051 | 1.35 ± 0.053 | 1.29 ± 0.089 | 1.18 ± 0.037
EEYKKSLYAYCHSKLRG [GRR1] | 2.29 ± 0.074 | 2.31 ± 0.07 | 2.42 ± 0.09 | 2.44 ± 0.075
SQSACREMALCRELHNK [SSN3] | 2.42 ± 0.089 | 2.38 ± 0.073 | 2.55 ± 0.11 | 2.8 ± 0.067
KRNGDEVYTLVDSQGLP [ARP7] | 3.35 ± 0.17 | 3.34 ± 0.11 | 2.98 ± 0.14 | 3.21 ± 0.097
TRSNPPFKRKMLLVDII [REC8] | 1.9 ± 0.098 | 1.98 ± 0.087 | 2.14 ± 0.16 | 2.58 ± 0.061
SDAMSIDEEDKDSESFS [YCG1] | 2.85 ± 0.15 | 1.95 ± 0.1 | 2.61 ± 0.13 | 2.4 ± 0.069
LEASLNSITKDNIDYAP [YJL039C/NUP192] | 2.7 ± 0.05 | 2.43 ± 0.041 | 2.47 ± 0.039 | 2.27 ± 0.026
LLRIQMLLCVSYFLQER [PCI8] | 1.29 ± 0.046 | 1.45 ± 0.044 | 1.35 ± 0.074 | 1.22 ± 0.052
VFVDGEANWPLPVNIRR [RPO21] | 2.99 ± 0.081 | 3.06 ± 0.085 | 3.12 ± 0.13 | 3.13 ± 0.072
PRGLNSARKLRVHRRNN [RPS23A] | 2.39 ± 0.088 | 3.06 ± 0.079 | 2.96 ± 0.096 | 2.8 ± 0.073
KGRAYKRLLYTRRFVNV [RPS30A] | 2.38 ± 0.058 | 2.12 ± 0.064 | 2.81 ± 0.069 | 2.76 ± 0.039
FLDSMAQKYASIVGVDL [FAS2] | 1.81 ± 0.051 | 2.29 ± 0.048 | 1.96 ± 0.057 | 2.61 ± 0.035
VALTGLLIRSKTEDPKG [YML031W/NDC1] | 1.71 ± 0.041 | 2.21 ± 0.042 | 1.73 ± 0.052 | 2.28 ± 0.032
AVNMTQNIMTLPDGKNG [MED6] | 2.79 ± 0.11 | 3.04 ± 0.056 | 2.67 ± 0.059 | 3.07 ± 0.062
EKIKKINYHQYISKAQN [SSN2] | 1.82 ± 0.055 | 2.18 ± 0.041 | 2.07 ± 0.078 | 2.15 ± 0.062
GELRSYLKGATGHSQGL [FAS1] |  |  |  | 3.87 ± 0.22
DEEELGQRTAYHSKRDA [RPB2] | 3.4 ± 0.1 | 2.9 ± 0.14 | 3.31 ± 0.09 | 3.04 ± 0.098
YIKSATLYSVKSKEDMK [SNU114] | 3.22 ± 0.17 | 3.31 ± 0.13 | 3.18 ± 0.082 | 3.11 ± 0.087
